In series [1] the target is T1, NONO (53-312) (UniProt Q15233 53-312).
T1 sequence: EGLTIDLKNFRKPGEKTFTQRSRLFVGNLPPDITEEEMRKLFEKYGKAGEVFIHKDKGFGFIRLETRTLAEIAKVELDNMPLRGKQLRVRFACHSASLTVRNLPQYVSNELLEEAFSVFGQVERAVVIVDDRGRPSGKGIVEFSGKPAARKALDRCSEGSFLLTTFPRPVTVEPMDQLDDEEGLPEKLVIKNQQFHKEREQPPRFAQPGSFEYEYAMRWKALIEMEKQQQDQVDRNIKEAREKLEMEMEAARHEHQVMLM
Nature of the series: EMSA. For orientation: A gel shift assay detects complexes by their altered migration in electrophoresis.

The target of series [2] is T1, NONO (53-312). The series can be described thus: filter binding.
A further series has as its target T2, RHAU53 peptide (UniProt Q9H2U1 53-105).
T2 sequence: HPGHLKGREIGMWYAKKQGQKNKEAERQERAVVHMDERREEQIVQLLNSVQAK
Nature of the series: MST competition.

Another series addresses T3, DHX36 (RHAU) (UniProt Q9H2U1 1-1008).
T3 sequence: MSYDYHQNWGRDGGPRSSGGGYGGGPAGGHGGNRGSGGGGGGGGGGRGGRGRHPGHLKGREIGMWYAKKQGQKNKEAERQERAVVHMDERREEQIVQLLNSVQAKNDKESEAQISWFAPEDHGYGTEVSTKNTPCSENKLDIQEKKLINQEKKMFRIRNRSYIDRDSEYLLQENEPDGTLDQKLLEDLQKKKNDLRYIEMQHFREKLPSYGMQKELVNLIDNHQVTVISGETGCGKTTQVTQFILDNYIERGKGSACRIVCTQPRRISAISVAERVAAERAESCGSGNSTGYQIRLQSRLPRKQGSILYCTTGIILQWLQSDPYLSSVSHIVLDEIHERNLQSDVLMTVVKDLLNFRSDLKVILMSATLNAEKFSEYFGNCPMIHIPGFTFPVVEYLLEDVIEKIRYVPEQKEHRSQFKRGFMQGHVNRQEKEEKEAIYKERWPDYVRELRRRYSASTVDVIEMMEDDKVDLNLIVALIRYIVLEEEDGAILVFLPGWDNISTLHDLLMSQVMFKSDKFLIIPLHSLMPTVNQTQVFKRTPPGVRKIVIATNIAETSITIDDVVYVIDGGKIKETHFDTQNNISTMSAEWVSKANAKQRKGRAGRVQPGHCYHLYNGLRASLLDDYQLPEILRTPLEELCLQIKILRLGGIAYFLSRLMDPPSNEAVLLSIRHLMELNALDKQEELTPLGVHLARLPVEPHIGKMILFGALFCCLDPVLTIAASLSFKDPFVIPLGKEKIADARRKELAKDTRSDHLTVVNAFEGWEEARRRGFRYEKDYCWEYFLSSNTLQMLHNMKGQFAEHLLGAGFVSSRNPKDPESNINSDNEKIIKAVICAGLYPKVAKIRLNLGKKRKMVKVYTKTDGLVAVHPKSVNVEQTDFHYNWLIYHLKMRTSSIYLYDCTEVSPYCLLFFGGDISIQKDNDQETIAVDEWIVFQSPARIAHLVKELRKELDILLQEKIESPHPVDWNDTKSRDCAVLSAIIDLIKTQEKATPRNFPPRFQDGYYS
The series can be described thus: MST.

One may read the Kd as the free concentration of one partner at which half of the binding sites on the other are occupied at equilibrium, for simple one-to-one binding. For orientation: IC50 means the concentration that inhibits the measured activity by half.

B1: MALAT1 rG4_09 (FAM) (structured_RNA)
RNA: AGGGGAGGGAAAGGGGGAAAGCGGGC
For B1, the Kd with NONO (53-312) [1] amounted to 0.0809 ± 0.0181 µM.

B2: MALAT1 rG4_09 MUT (biotin) (ssRNA)
RNA: AGAAGAGAGAAAGAAAGAAAGCGAGC
With B2, the binding result with NONO (53-312) [2] is recorded as “no binding”.

B3: MALAT1 rG4_04 (FAM) (structured_RNA)
RNA: AGGGUGGGCUUUUGUUGAUGAGGGAGGGGA
In the case of B3, the Kd with NONO (53-312) [1] came out at 0.0469 ± 0.0121 µM; in the series with DHX36 (RHAU), 0.13 ± 0.016 µM. In the series with RHAU53 peptide, this molecule displayed a half-inhibitory concentration (IC50) of 0.621 ± 0.0953 µM.

The record behind these values is article PMC8754639.
